These results are taken from patent US20230235090A1 (HARBOUR BIOMED US, published 2023).

Substitutions are numbered along the chain they refer to. In names and notes the source's numbering stands.

The target in assay [1] is T1, human 4-1BB (human, UniProt Q07011 24-255).
T1 construct: whole, on cells; also called CD137; TNFRSF9
Nature of the assay: FACS, CHO-K1/hu 4-1BB cells [G]. For orientation: A flow cytometer gives signals particle by particle.
Experimental: (§1) This example is intended to investigate the in vitro binding activity of anti-human 4-1BB HCAb and H2L2 monoclonal antibodies to human and cynomolgus monkey 4-1BB. Antibody binding experiments at the cellular level were conducted using a CHO-K1 cell strain overexpressing human 4-1BB (CHO-K1-hu 4-1BB, Genescript) and a CHO-K1 cell strain overexpressing cynomolgus monkey 4-1BB (CHO-K1-cyno 4-1BB, Genescript). Briefly, the CHO-K1-hu 4-1BB and CHO-K1-cyno 4-1BB cells were digested and resuspended in DMEM complete medium, and the cell density was adjusted to 1×10⁶ cells/mL. […] The cells were incubated at 4° C. for 1 h away from light. Thereafter, the cells in each well were rinsed twice with 100 μL of pre-cooled PBS, and centrifuged at 500 g at 4° C. for 5 min, and then the supernatant was discarded. […] The plate was incubated away from light at 4° C. for 30 min. The cells in each well were rinsed twice with 100 μL of pre-cooled PBS, and centrifuged at 500 g at 4° C. for 5 min, and then the supernatant was discarded. Finally, the cells in each well were resuspended in 200 μL of pre-cooled PBS, and the fluorescence signal values were read using a BD FACS CANTOII.

For assay [2], the target named is T2, cynomolgus monkey 4-1BB (cynomolgus monkey).
T2 construct: whole, on cells; also called CHO-K1-cyno 4-1BB; CHO-K1/cyno4-1BB
Nature of the assay: FACS, CHO-K1/cyno 4-1BB cells [F].
Experimental: as §1

The target in assay [3] is T1, human 4-1BB. Briefly: FACS on CHO-K1-hu 4-1BB cells.
The target of assay [4] is T1, human 4-1BB. Nature of the assay: FACS, CHO-K1/h4-1BB cells [L].
Experimental: Antibody binding experiments at the cellular level were conducted using a CHO-K1 cell strain overexpressing human 4-1BB (CHO-K1/hu 4-1BB, Genscript, #M00538) and a CHO-K1 cell strain overexpressing cynomolgus monkey 4-1BB (CHO-K1/cyno 4-1BB, Genscript, #M00569). Briefly, the CHO-K1-hu 4-1BB and CHO-K1/cyno 4-1BB cells were digested, resuspended in F12K complete medium, and washed once with PBS. The cell density was adjusted to 1×10⁶ cells/mL with PBS. […] The cells were incubated at 4° C. for 1 h away from light. Thereafter, the cells in each well were rinsed twice with 100 μL of pre-cooled PBS, and centrifuged at 500 g at 4° C. for 5 min, and then the supernatant was discarded. […] The plate was incubated away from light at 4° C. for 30 min. The cells in each well were rinsed twice with 100 μL of pre-cooled PBS, and centrifuged at 500 g at 4° C. for 5 min, and then the supernatant was discarded. Finally, the cells in each well were resuspended in 200 μL of pre-cooled PBS, and the fluorescence signal values were read using a BD FACS CANTOII or an ACEA NovoCyte flow cytometer.
Assay [5] concerns the target T1, human 4-1BB. Briefly: FACS, CHO-K1/h4-1BB cells [A].
Experimental: (§2) Antibody binding experiments at the cellular level were conducted using a CHO-K1 cell strain overexpressing human 4-1BB (CHO-K1/h4-1BB, Gensript, #M00538), a CHO-K1 cell strain expressing cynomolgus monkey 4-1BB (CHO-K1/cyno4-1BB, Genscript, #M00569) and a CHO-K1 cell strain overexpressing mouse 4-1BB (CHO-K1/m4-1BB, Genscript, #M00568). Briefly, the CHO-K1/h4-1BB cells, CHO-K1/cyno 4-1BB cells and CHO-K1/m 4-1BB cells were digested and resuspended with PBS containing 2% FBS. The cell density was adjusted to 1×10⁶ cells/mL. […] The cells were incubated at 4° C. for 2 h away from light. Thereafter, the cells in each well were rinsed twice with 100 μL of a pre-cooled FACS buffer, PBS containing 2% FBS, and centrifuged at 500 g at 4° C. for 5 min, and then the supernatant was discarded. […] The plate was incubated away from light at 4° C. for 1 h. The cells in each well were rinsed twice with 100 μL of pre-cooled FACS buffer, and centrifuged at 500 g at 4° C. for 5 min, and then the supernatant was discarded. Finally, the cells in each well were resuspended in 200 μL of pre-cooled FACS buffer, and the fluorescence signal values were read using an ACEA Novocyte3000 flow cytometer.
Assay [6] deals with T1, human 4-1BB. Nature of the assay: FACS, CHO-K1/hu 4-1BB cells [H].
Experimental: (§3) Antibody binding experiments at the cellular level were conducted using a CHO-K1 cell strain overexpressing human 4-1BB (CHO-K1-hu 4-1BB, Genescript) and a CHO-K1 cell strain overexpressing cynomolgus monkey 4-1BB (CHO-K1-cyno 4-1BB, Genescript). Briefly, the CHO-K1-hu 4-1BB and CHO-K1-cyno 4-1BB cells were digested and resuspended in DMEM complete medium, and the cell density was adjusted to 1×10⁶ cells/mL. […] The cells were incubated at 4° C. for 1 h away from light. Thereafter, the cells in each well were rinsed twice with 100 μL of pre-cooled PBS, and centrifuged at 500 g at 4° C. for 5 min, and then the supernatant was discarded. […] The plate was incubated away from light at 4° C. for 30 min. The cells in each well were rinsed twice with 100 μL of pre-cooled PBS, and centrifuged at 500 g at 4° C. for 5 min, and then the supernatant was discarded. Finally, the cells in each well were resuspended in 200 μL of pre-cooled PBS, and the fluorescence signal values were read using a BD FACS CANTOII.
Assay [7] has as its target T2, cynomolgus monkey 4-1BB. Nature of the assay: FACS, CHO-K1/cyno 4-1BB cells [G].
Experimental: as §3
Assay [8] concerns the target T2, cynomolgus monkey 4-1BB. Nature of the assay: FACS, CHO-K1/cyno-4-1BB cells [B].
Experimental: as §2
Assay [9] deals with T1, human 4-1BB. Briefly: FACS, CHO-K1/hu 4-1BB cells [I].
Experimental: as §1
In assay [10] the target is T2, cynomolgus monkey 4-1BB. Briefly: FACS, CHO-K1/cyno 4-1BB cells [H].
Experimental: as §3

T1 sequence (Q07011 24-255): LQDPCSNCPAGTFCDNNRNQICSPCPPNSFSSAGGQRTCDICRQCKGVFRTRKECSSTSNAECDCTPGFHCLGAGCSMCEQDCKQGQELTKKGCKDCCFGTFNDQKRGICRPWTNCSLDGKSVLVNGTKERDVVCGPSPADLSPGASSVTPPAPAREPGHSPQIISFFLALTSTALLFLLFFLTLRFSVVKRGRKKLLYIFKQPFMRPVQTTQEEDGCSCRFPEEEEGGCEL

B1: PR001842 (antibody, human IgG1, V domains shown)
VH: EVQLLESGGGLVQPGGSLRLSCAASGFTFSSYAMSWGRQAPGKGLEWVSAISGSGGSTYYADSVKGRFTISRDNSKNTLYLHMNSLRAEDTAVYYCAKEKVATTGDYYYDMDVWGQGTTVTVSS
notes: anti-4-1BB HCAb, human IgG1 Fc
What is called EC50 is the concentration giving half of the maximal effect. Turning to B1, in the assay with human 4-1BB [1], the concentration for a half-maximal effect (EC50) is 0.537 nM. Also, in the assay with cynomolgus monkey 4-1BB [2], it took 2.29 nM to reach a half-maximal effect (EC50) and the “Maximum MFI” value is 9660 MFI.

B2: PR007381 (antibody, human IgG1, V domains shown)
VH: EVQLLESGGGLVQPGGSLRLSCAASGFTFSNYAMSWVRQAPGKGLEWVSSIDASGGDTYYADSVKGRFTISRDNSKNTLYLQMNSLRAEDTAVYYCAKEGSHGTDDSHYDVDVWGQGTTVTVSS
notes: anti-4-1BB HCAb, human IgG1 Fc; also called germline variant of PR004469
Turning to B2, in the assay with human 4-1BB [3], the binding result is “binds”.

B3: PR004469 (antibody, human IgG1, V domains shown)
VH: B2 VH with V37F, A40P, G42E, K43T, E46K
notes: anti-4-1BB HCAb, human IgG1 Fc; also called PTM variant of PR001838 (G53A)
Consider B3, for which the EC50 in the assay with human 4-1BB [4] stood at 17 nM; with human 4-1BB [5], 18 nM; with human 4-1BB [6], 1.29 nM; with cynomolgus monkey 4-1BB [7], 0.568 nM; in the assay with cynomolgus monkey 4-1BB [8], 25.4 nM. Besides, the “Maximum MFI” value in the assay with human 4-1BB [6] was 109000 MFI.

B4: PR000448 (antibody, human IgG4 S228P, kappa, V domains shown)
VH: QVQLQQWGAGLLKPSETLSLTCAVYGGSFSGYYWSWIRQPPGKGLEWIGEIQHSGSTDSNPSLKGRVTFSVDTSKNQFSLKLNSVTAADTAVYYCARLTGPFDYWGQGTLVTVSS
VL: EIVMTQSPATLSVSPGERATLSCRASQSISSILAWYQQKPGQAPRLLIYGASTRATGIPARFSGSGSGTEFTLTISSLQSEDFAVYYCQQYYNWPLTFGGGTKVEIKR
notes: anti-4-1BB H2L2 recombinant fully human IgG antibody, human IgG1 / kappa
Take B4: the concentration giving a half-maximal response (EC50) was determined as 0.947 nM in the assay with human 4-1BB [9] and 1.06 nM with cynomolgus monkey 4-1BB [10].
